The record followed here is patent US20240115683A1 (ULTRAGENYX PHARMACEUTICAL, published 2024).

For the test, the target named is T1, human FGF23 (fibroblast growth factor 23) (human, UniProt Q9GZV9 25-251).
T1 construct: In the total FGF23 ECLA the FGF23 was recombinant human FGF23 (standards) and endogenous FGF23 in patient serum (samples); It may include the signal peptide; also called recombinant human FGF23; rhFGF23
T1 sequence: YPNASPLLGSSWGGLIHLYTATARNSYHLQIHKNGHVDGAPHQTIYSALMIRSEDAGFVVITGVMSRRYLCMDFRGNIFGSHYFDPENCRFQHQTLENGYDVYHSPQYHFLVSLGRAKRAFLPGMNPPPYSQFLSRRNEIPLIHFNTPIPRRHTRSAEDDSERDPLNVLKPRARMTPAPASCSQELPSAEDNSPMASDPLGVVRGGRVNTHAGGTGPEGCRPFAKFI
The test is described as follows: total FGF23 ECLA; rhFGF23 standards and serum samples incubated with excess KRN23, complex detected. The procedure: The mean values of serum total intact FGF23 levels at Baseline were recorded. The total FGF23 ECLA assay measures endogenous FGF23 in the presence of KRN23, whether complexed or unbound in serum. Standards (recombinant human FGF23 [rhFGF23]) and samples are incubated with excess amounts of KRN23 in a buffer matrix then detected by the assay. The assay measures the KRN23/FGF23 complex, which represents all endogenous FGF23 in the sample.

B1: KRN23 (antibody, human IgG1, kappa, V domains shown)
VH: QVQLVQSGAEVKKPGASVKVSCKASGYTFTNHYMHWVRQAPGQGLEWMGIINPISGSTSNAQKFQGRVTMTRDTSTSTVYMELSSLRSEDTAVYYCARDIVDAFDFWGQGTMVTVSS
VL: AIQLTQSPSSLSASVGDRVTITCRASQGISSALVWYQQKPGKAPKLLIYDASSLESGVPSRFSGSGSGTDFTLTISSLQPEDFATYYCQQFNDYFTFGPGTKVDIKR
notes: also called anti-FGF23 antibody KRN23; recombinant fully human monoclonal IgG1 antibody
In the case of B1, the binding result is recorded as “binds”.
